The values below come from patent publication WO2018134389A1.

The target in this assay is DC-SIGN ECD immobilised on a streptactin-functionalised SPR surface (human) (UniProt Q9NNX6).
Chain of DC-SIGN ECD immobilised on a streptactin-functionalised SPR surface (human) (Q9NNX6 59-404): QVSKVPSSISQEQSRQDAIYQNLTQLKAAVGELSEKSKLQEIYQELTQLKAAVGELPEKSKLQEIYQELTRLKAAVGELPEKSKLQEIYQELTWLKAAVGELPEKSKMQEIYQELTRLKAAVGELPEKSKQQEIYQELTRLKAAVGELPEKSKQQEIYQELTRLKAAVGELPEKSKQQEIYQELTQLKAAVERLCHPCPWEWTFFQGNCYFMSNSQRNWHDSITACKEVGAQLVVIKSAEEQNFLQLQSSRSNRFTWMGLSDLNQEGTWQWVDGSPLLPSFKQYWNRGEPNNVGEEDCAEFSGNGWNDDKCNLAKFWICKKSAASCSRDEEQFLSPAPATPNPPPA

Take “HCMV gB treated with a(2 to 3,6)-neuraminidase (sialic acids removed) (from UniProt P13201 25-907) (ligand)”: the Kd – broadly, the concentration at which binding is half-saturated – was found to be 0.025 nM.
